Test: soluble on expression in E. coli; label from the status in PepcDB or PDB records

Sequence	soluble on expression in E. coli
MDHLPIFCQLRDRDCLIVGGGDVAERKARLLLEAGARLTVNALTFIPQFTVWANEGMLTLVEGPFDETLLDSCWLAIAATDDDTVNQRVSDAAESRRIFCNVVDAPKAASFIMPSIIDRSPLMVAVSSGGTSPVLARLLREKLESLLPQHLGQVARYAGQLRARVKKQFATMGERRRFWEKFFVNDRLAQSLANADEKAVNATTERLFSEPLDHRGEVVLVGAGPGDAGLLTLKGLQQIQQADIVVYDRLVSDDIMNLVRRDADRVFVGKRAGYHCVPQEEINQILLREAQKGKRVVRLKGGDPFIFGRGGEELETLCHAGIPFSVVPGITAASGCSAYSGIPLTHRDYAQSVRLVTGHLKTGGELDWENLAAEKQTLVFYMGLNQAATIQEKLIAFGMQADMPVALVENGTSVKQRVVHGVLTQLGELAQQVESPALIIVGRVVALRDKLNWFSNH	soluble
MSLKKTEKAYEVKRAFNNNIVLVDDDEKEIILFAKGIGFNCKKGSIIPENTNIEKIFTIQDENNIANFRRVVGSNDEKFIAFCEELILEISRDFSEELNEIIHIGLIDHISFAIERMKKGEILRNPFLVEIETLYPKEFEAATKMVKKLEDFTGVSIVDDEIGFIAMHIHSARTTGKISHTIKFTYIANTAVEYIEDAFNIEVDRTSLSYARFISHLRFAIERLINNTPVKNELLSIIKLKYPESFKVAEEIGKAINEDFSLEVAEDEIGYLALHVERIRKNEGHHHHHH	soluble
MSLGEKMAIWRTKKPATKQKIVSDLQELGIKKGDTIIFHASMSKAHWICGGPVTVILALQELVGELGNIVMPAQTGQLSDPAKWENPPVPESWWKIIRRETPPFDPLVTPTRGMGVIAETFRTMPDVERSFHPYHSFCAWGKDKKQILANQPLAKSMGDESPLGKMYQLDAKIILFGVDNNNNTSLHLAEERSNAFPLIENQAAFLKNGEIIWEKYQEIDYNSEVFIALGRAYEKEHDFHPTTIIGAPTKIYDMRDLVDFGTKYFQTKNHEGHHHHHH	soluble
LTQPLDHRHPEKGSFRQRVIVGHVGYDRPTVIVTEGYGAGYALRPTYREELSELFDANMIFVEHRYFLESTPEPCDWQYLTAENSAEDLHAVTTAFKTLYPGKWISTGISKGGQTSLLYRVFFPDDVDVSVPYVAPLCYAREDGRHEPFLRRVGTEADRKKIEDFQLEVLKRKARLLPRFEKMCTEKNYTFRAPLEEIYDFCVLEYSFSIWQWGTDIRSIPETSASDDTLLDHLLAISGPSYFIVDSPTLSFFVQAARELGYYGYDIAPFKPYLSIKTSKDYLRRLMLPEDMRKMKFDKTLSNKIVRFLKKNDPKMIFIYGQNDPWTAAGVTWLKNKKNIHVFVEPGGSHLARIGTMSEDQKQKVMSLLRGWLEE	not soluble
MSLSAPRITRVETAAIRAVGPSVLVRVWAGDEHGLGECYPSAPAAGIHHIVMNMEEQLLGEDPRDVERLYEKMRRWNIFTGGQAGAVITALSGIETALWDLAGKLQGVPVYRLLGGAFRRRVRLYADCNAGTVDAAAHHIEGGLFEEGSNEEYIAVAREAVERGFDAIKLDVDDITGPLHRDFWNGAISPREHEAMVARVAAVREAVGPEVEVAIDMHGRFDIPSSIRFARAMEPFGLLWLEEPTPPENLDALAEVRRSTSTPICAGENVYTRFDFRELFAKRAVDYVMPDVAKCGGLAEAKRIANLAELDYIPFAPHNVSSPVGTVAAAHVCAAVSNFAVLEWHAIDMPHWEDFVRYPGGPVIREGHIELTEEPGLGLELDEEAAFEHRHEKGGVPFFGRTEGHHHHHH	soluble
MAHHHHHHMSRNGELCLKKVIISYCPSNGAPNTRQFLATHLPHFHAKYPSVSIDLRPRLWPEMAITGVYRDGSERSYNTKNLSPMGIFLRLNNLVSTANDYDQPFCASHLHFQRRSVQGTWNPWLWNYETERRRTEAPQWRRKLSEKEWDYYVGQYSAQMKQEEDEIQRRVADRTCVQEQSTREVQERWKRHVVPRMQTDLEFNLSHFKRQHARGQLQQRPVTMGEYRLFSVPDPRELGQDAVDTMRRRESHNMEVWWRKRKEQLKPP	not soluble
SESVHPGNHNLDTLSHSQISKEEETFPSHQLYTFQAPWLVYGLAWCNRVNSPYSLALSSFIESCNNKIILVELNDKTEDFQQVVQVDHPYPASKVAFIPDYSGTRPQLLATSGDALRIWEWSNDNLKSKALLSTNPESEYCAPLTSFDWCEVNPATLCTSSVDTTCTIWDVETQQAKTQLIAHDKEVYDVAFQTGTDKIFASAGADASVRCFDLRNLETSTILYEIPDDSTPILRIGWNKKEPNYMAALVMDSSKFLLLDIRVPSLPVAEMEHKLTNHKRHKSVNAIHWAPHSSSHICSAGDDCYTLIWDISAIPRPIEEPILSYQSDREVNNLQWSAADPDWIAIAAGNKMQILRV	soluble
MGSDKIHHHHHHMARKKRNPDAEKLAESILNAYQPESVDDMQDALKDVFGPLFEKMLQGELNNHLGYDAHSKEPKEHDNRRNGYGTKTLKTSFGEVAIDVPRDREASFEPELIPKRKRDVSDIEGKVLSMYARGMSQRDIAATVEAIYGFDISHEMISDITDAVLPELEEWQARPLAKCYAFLFVDCMYVTLRENYEAKEYAVYTILGYDLKGNKEILGLWLNQTESKNRWMQVFDELKARGVEDVFFISMDGVSGLEEGAKAIFPSVIVQRCIVHLVRNALRYIPSKDYKEVCRDMKKFYGASSLNAAHAAFGSFQNRWSHYSGAVDVWKRNFAHVEQLFDYGSAIRKIMYTTNAVESVHSSFRKVTKKGAFSNENALLKLLYLRTKELHAKWSGGRIQNWAMVLKQLMINETFSSRMKSMRFTFRNNGRFIQLCVRSKFI	not soluble
MGSDFDHLVNSLSDVELLNLFIQSCSQTTINGVPVPRFPPEEIQKQFVGASYEHALYEAYLFYRHIKEYAQNLGVPLNKESKVLDFGCGWGRIIRFLFKDASDQNLLGIDVDPAMITLCNETLGRGIYKTASPHPPVEFISDNSLDIIFAYSVFSHLSEATAENWVKEFSRVLRPGGIFIATTQARYFLDFCQQFQEHPELIQTGWHKTLSQAFPDIHRAISDYENGKFVHSPTGAGDVRNSSFYGETVIPRTYIENHYEKYLKLQDFFDDVNRLPQALFVLQKILEHHHHHH	soluble
MAHHHHHHMLHPSNALLTALLFVTTRMTNVESVKKKPLPYVKNYNLCDRSVRGIPSRHTKGTIRASTNPITTAPNEDKSDVYTPPISSGN	soluble
MFTKSHLALVIGAVLAAPAVANVQTDEHLVVEGREFGYKADTNSTAMRMEMTQLETPGQVAVIDETVIDEQRASTLGEVLRNDASVSAGGTSRNRERFSLRGFELSSSDGFLRDGRQHWSHYRQPIEL	not soluble
EIRDTKKDLKESEMRLSLALDASNMAAWHIDMDTRHIAYSDTLAVIFGYPKDTTLVWSDLVAQIYPEDMHLYQTARQQMETTGLYEYEIRIVWPDNSIKWIKTIGKMLLDSDGSQRRMIGITRDIT	not soluble
MLKSVLGKFSVGDKMIEVTFLGAGGGRFVTITQVRSTGGFFIKASKNIFVDPGPGALIRMIRYKLDPRKIDVLFISHRHTDHCNDAEVIVEGMTYGVTKRRGILIGSRSVVHGDDAHTPALSKYHLEALEEVHAPNPGDRFKLGNEDMVITPSVHSDPTTIGFRLKTNFGDISYIADTEYFEGLEEWHDGTRVLIASVTRPRDMKIPYHLSTDDVVYMLKKMKEKPEVLIMTHLGMKMHFAGPYKEAEYIQNVTGVKTYVAKEGFRITIGKEIHVKTLRPVRFVLEHHHHHH	soluble
MAHHHHHHMSIYCRLASPPVFLRALHTVSVSRDGWATVVFTDSHVVLHVEGTDENMTATCTLPKNLFAEYAVVETRFALHIPTLIDALLMLG	not soluble
MSEPLHALARQLEQAIRASEPFQQLKRAYEDVRRDETAYRMFANVRDIQLRLHEKQMRGAAILPDEIEQAQKAMALAQQNEKLARLMALEQQMSITIAEVQQIAMKPLEELHRSFMEGR	soluble
